Tests used:
prothrombin = prothrombin (Homo sapiens, UniProt P00734 P00734:44-622); assay: filter; 50 nM prothrombin; settings: tags: Athens Research
Method: Dot blot binding assays were performed throughout the selections to monitor the protein binding affinity of the pools. Trace ³²P-labeled RNA was combined with a dilution series of human Thrombin (1 nM-1000 nM) and incubated at room temperature for 30 minutes in 1×DPBS (w/ Ca²⁺ and Mg²⁺) (Gibco, Catalog #14040, Invitrogen, Carlsbad, Calif.) plus 0.1 mg/ml BSA in a final volume of 30 μl. The binding reactions were analyzed by nitrocellulose filtration using a Minifold I dot-blot, 96-well vacuum filtration manifold (Schleicher & Schuell, Keene, N.H.). A three-layer filtration medium was used, consisting (from top to bottom) of Protran nitrocellulose (Schleicher & Schuell, Keene, N.H.), Hybond-P nylon (Amersham Biosciences, Piscataway, N.J.) and GB002 gel blot paper (Schleicher & Schuell, Keene, N.H.). RNA that is bound to protein is captured on the nitrocellulose filter, whereas the non-protein bound RNA is captured on the nylon filter. The gel blot paper was included simply as a supporting medium for the other filters. Following filtration, the filter layers were separated, dried and exposed on a phosphor screen (Amersham Biosciences, Piscataway, N.J.) and quantified using a Storm 860 Phosphorimager® blot imaging system (Amersham Biosciences, Piscataway, N.J.).
Based on pool binding monitored throughout the selections as described above, Round 9 Pools from both Selection #2 and #3 were also cloned using a TOPO TA Cloning kit (Invitrogen, Carlsbad, Calif.) according to manufacturer's instructions, and sequenced. Of the 136 sequences obtained from Round 9 of both selections, 130 unique sequences were selected for assaying in a single-point dot blot screen against thrombin and prothrombin to test for selective binding to thrombin. Clones were ordered from IDT (Coralville, Iowa) at 25 μmole synthesis scale. Clone transcripts were 5′ end labeled with γ̅³²P ATP and spin purified with Centrisep columns (Princeton Separations, Adelphia, N.J.) to remove excess label. Trace amounts of labeled clone were incubated with +/−10 nM Thrombin (or +/−50 nM prothrombin) and 0.1 mg/ml BSA in a total volume of 30 μl 1×DPBS (w/ Ca²⁺ and Mg²⁺) (Gibco, Catalog #14040, Invitrogen, Carlsbad, Calif.) for 30 minutes. Post incubation, the binding reaction applied the dot-blot binding assay apparatus previously described.

[1] = target: thrombin (alpha-thrombin) (Homo sapiens, UniProt P00734;P00734 P00734:315-363,P00734:364-622); assay: filter; 10 nM thrombin

Row | Binder | binding signal (prothrombin) [% bound] | binding signal [1] [% bound]
1 | TCCCGTCGATTCGGTATGGTTTCGTTTCTGGGTGGCTGAGGATCGATC (ssDNA) [AMX(399)_B11] | 18.2 | 18.7
2 | TCCCATGATTGGCCGGGGTGTCTTTTGGGTCGGGTGGCTGAGGATCGATC (ssDNA) [AMX(398)_C6] | 11.6 | 28
3 | TCCCGATCGTTTCGTGGGGTAGTGTTGGTTGGGGTGGCTGAGGATCGATC (ssDNA) [AMX(398)_C9] | 20.7 | 20.7
4 | TCCCTGATCCTTAGGCTAGGTTGGGTGGGGTGGTGGCTGAGGATCGATC (ssDNA) [AMX(398)_B5] | 8.27 | 12.5
5 | TCCCGGATCTGTGGTAGGTTTGTTGGGTTGGGTGGCTGAGGATCGATC (ssDNA) [AMX(398)_E12] | 39.9 | 40.4
6 | TCCCGAGCGATCGGGGTGGTTTTTTGGGAGTGGGTGGCTGAGGATCGATC (ssDNA) [AMX(399)_C7] | 6.94 | 6.8
7 | TCCCGTCGAGCCGGGGTATGATTATGGGTGGGGTGGCTGAGGATCGATC (ssDNA) [AMX(398)_A9] | 29.7 | 28.3
8 | TCCCAACGATCTGTGGTTTTTTTGTTCTGGGTGGCTGAGGATCGATC (ssDNA) [AMX(398)_C1] | 37 | 35.8
9 | TCCCTTGATCTGGGGTGCGTTATTGTGGTTCGGGTGGCTGAGGATCGATC (ssDNA) [AMX(398)_E7] | 20.3 | 27.9
10 | TCCCTGGTATCGTATCCAAAGGGGTGGTGTGGGTGGCTGAGGATCGATC (ssDNA) [AMX(399)_H8] | 14.3 | 23.3
11 | TCCCGATCGGACGTGGTGGGTTACTTCTGGGTGGCTGAGGATCGATC (ssDNA) [AMX(398)_E5] | 25.4 | 25.6
12 | TCCCTATCGACCGGGGTTCTTTCGTGGTTCGGGTGGCTGAGGATCGATC (ssDNA) [AMX(398)_E8] | 26.7 | 26.4
13 | TCCCATCGGTCCGGGGTAATTTACTGGGTCGGGTGGCTGAGGATCGATC (ssDNA) [AMX(398)_A8] | 43.9 | 40
14 | TCCCATCGATTTGTCCTCAGAGGTTGGCGTGGGTGGCTGAGGATCGATC (ssDNA) [AMX(399)_B12] | 15.3 | 24.2
15 | TCCCATTGATCTGTGGTGGTTTTGTGGTTTGGGTGGCTGAGGATCGATC (ssDNA) [AMX(398)_A2] | 28.4 | 26.7
16 | TCCCATTGATCCGGGGTGGTTTTCTGGTTTGGGTGGCTGAGGATCGATC (ssDNA) [AMX(399)_B10] | 23.6 | 24.4
17 | TCCCGATTTGAGTTTAGTAGGGTGGGTAGGATGGTGGCTGAGGATCGATC (ssDNA) [AMX(398)_D1] | 11.8 | 20.7
18 | TCCCATCGAGTCGTGGTGTTTTGTTGGCCTGGGTGGCTGAGGATCGATC (ssDNA) [AMX(398)_F2] | 8.81 | 8.76
19 | TCCCAGCGGTCCTAATGGGTAGTGTTGGTTTGGGTGGCTGAGGATCGATC (ssDNA) [AMX(398)_D5] | 12.9 | 12

Row | Binder | binding signal (prothrombin) [% bound] | binding signal [1] [% bound]
20 | TTCCTGTCGATAAGGGGTATTATAGTGGTGTGGGTGGCTGAGGATCGATC (ssDNA) [AMX(399)_C9] | 10.9 | 11.2
21 | TCCCATCGATCCGGGGTATTCTTATTTCTGGGTGGCTGAGGATCGATC (ssDNA) [AMX(398)_E1] | 20.9 | 23.4
22 | TCCCAATCGAGCCGGGGTTTGTTTGTTCTGGGTGGCTGAGGATCGATC (ssDNA) [AMX(398)_B1] | 32.7 | 31.3
23 | TCCCTTGTCGATTCTGGTATGTTTTGGTCCGGGTGGCTGAGGATCGATC (ssDNA) [AMX(398)_D7] | 34.6 | 35
24 | TCCCGATCGAGAGTGGTATTTGTTTTCTGGGTGGCTGAGGATCGATC (ssDNA) [AMX(398)_F5] | 19.4 | 21.3
25 | TCCTGTCGATCCCTACGGGTAGTGTTGGTTTGGGTGGCTGAGGATCGATC (ssDNA) [AMX(399)_B9] | 14.3 | 14.7
26 | TCCCAAGGATCCGGGGTAGTTAGTGGCTGAGGTGGCTGAGGATCGATC (ssDNA) [AMX(398)_C2] | 0.66 | 0.2
27 | TCCCTATCGAGCTGTGGTAGTATTCTGGTTTGGGTGGCTGAGGATCGATC (ssDNA) [AMX(398)_A7] | 25.4 | 26.5
28 | TCCCGTCGATCAGGGGTAATTTGCTGGTGGTGGGTGGCTGAGGATCGATC (ssDNA) [AMX(399)_C8] | 33.8 | 36.8
29 | TCCTGTCGATCGGTACGTTTTCGTTTCTGGGTGGCTGAGGATCGATC (ssDNA) [AMX(398)_C11] | 36.7 | 35.1
30 | TCCCTTGATCCGGTGGTAGTTTTATTGGTGCGGGTGGCTGAGGATCGATC (ssDNA) [AMX(398)_F6] | 24.6 | 23.9
31 | TCCCATGATCGGGTCGGTATTTGTTGGTCAGGGTGGCTGAGGATCGATC (ssDNA) [AMX(398)_D3] | 20.8 | 20
32 | TCCCATCGATTTGGGGTATGTTATGGGCTCGGGTGGCTGAGGATCGATC (ssDNA) [AMX(398)_A6] | 31.3 | 31.1
33 | TCCCTGCAATCGGTGCTCGAGAGGTTGGGTGGGTGGCTGAGGATCGATC (ssDNA) [AMX(398)_C12] | 15.5 | 22.8
34 | TCCCTCGATCTTGGGGTACTATAGTGGTGTGGGTGGCTGAGGATCGATC (ssDNA) [AMX(398)_B10] | 25.7 | 26.8
35 | TCCCATCGAGACGGGGTGTCTTTTGTGGCTTGGGTGGCTGAGGATCGATC (ssDNA) [AMX(398)_E6] | 30.3 | 29.5
36 | TCCCTGGAGATCCGGGGTAGTATACTGGTTTGGGTGGCTGAGGATCGATC (ssDNA) [AMX(398)_A12] | 37.5 | 35.4
37 | TCCCAGATGTGATCCGTATCCTGGTTTGGTTGGGTGGCTGAGGATCGATC (ssDNA) [AMX(398)_B3] | 16.5 | 17.5
38 | TCCCGATTATCCGTTGGTATTGTTGGTCTGGGTGGCTGAGGATCGATC (ssDNA) [AMX(398)_B12] | 20.2 | 20.1
